Literature values as cited in patent US10888616B2 (Latitude Pharmaceuticals, Inc., priority 2015, dated 2021).

Key:
[1] = acidic solution (pH 2-4), within 24 hours at 37° C.

Glucagon: single-chain polypeptide of 29 amino acid residues, sequence in FIG. 1 (SEQ ID NO: 1)
solubility in pure water or alcohol: insoluble | gelling in water (pH 3 or lower): will aggregate to form a gel within hours | solubility in water (physiological pH (pH 4-8)): insoluble | glucagon broken down into degradation products [1]: 5-70%
